First the molecules themselves.
B1: library; a variant is named by its letters at N, in order (parent)
chain: GCUGUCACCGGUGCUUGGUACGUUAUAUUCAGCCGGUCUGAUGAGUCUNNNNNNAGACGAAACAGC

The variants in data set [1] derive from B1. The data set is described as follows: FACS-Seq fitted mean relative fluorescence mCherry/BFP without ligand (log10 relative fluorescence); HEK293T overexpressing SLC46A1; higher = higher reporter protein expression. The note with it: without (6R,S)-folinic acid; ligand present: no. The method, then: (§1)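 Hammerhead (sTRSV) ribozyme switch libraries with a ligand aptamer grafted on stem I and a randomized N4-6 loop II, cloned into the 3' UTR of mCherry and transiently transfected into HEK293T cells; RNA-Seq 72 h post transfection with ligand added 1 h before transfection; RNA read count / plasmid DNA read count normalized to the non-cleaving sTRSVctl (x100), log10; sequences with >100 DNA reads. FACS-Seq: lentiviral library sorted into 6 bins after 48 h ligand, log-normal fit mean of mCherry/BFP scaled to controls. Printed sequences are partial switch sequences.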

Data set [2] covers variants of B1. The data set can be described thus: normalized RNA/DNA level without ligand (relative to sTRSVctl = 100) (log10 (% of sTRSVctl)); HEK293T overexpressing SLC46A1; higher = less ribozyme self-cleavage, higher mRNA level. The conditions noted are these: without (6R,S)-folinic acid; ligand present: no. How it is done: as §1
The variants in data set [3] derive from B1. The data set is described as follows: FACS-Seq fitted mean relative fluorescence mCherry/BFP with ligand (log10 relative fluorescence); HEK293T overexpressing SLC46A1; ligand concentration (+) FACS-Seq: 6 mM; higher = higher reporter protein expression. The note with it: with (6R,S)-folinic acid; ligand present: yes. How it is done: as §1
Variants of B1 are the subject of data set [4]. The data set can be described thus: normalized RNA/DNA level with ligand (relative to sTRSVctl = 100) (log10 (% of sTRSVctl)); HEK293T overexpressing SLC46A1; ligand concentration (+) RNA-Seq: 6 mM; higher = less ribozyme self-cleavage, higher mRNA level. The conditions noted are these: with (6R,S)-folinic acid; ligand present: yes. The method, then:
as §1

± gives the standard deviation of the averaged measurements.

The source of these data is the supplement of paper PMC6757056.

For the variant GCUGUCACCGGUGCUUGGUACGUUAUAUUCAGCCGGUCUGAUGAGUCUCAAACUAGACGAAACAGC, the “FACS-Seq fitted mean (log10)” value was found to be 0.433 ± 0.064 in data set [1] and 0.667 ± 0.16 in data set [3]. Besides, in data set [2], the “normalized RNA/DNA level without ligand (log10)” value came out at 2.01 ± 0.027. Moreover, in data set [4], the “normalized RNA/DNA level with ligand (log10)” value worked out at 2.01 ± 0.029.

Turning to GCUGUCACCGGUGCUUGGUACGUUAUAUUCAGCCGGUCUGAUGAGUCUCAAACCAGACGAAACAGC, the “FACS-Seq fitted mean (log10)” value was determined as 0.546 ± 0.013 in data set [1] and 0.377 ± 0.2 in data set [3]. Also, the “normalized RNA/DNA level without ligand (log10)” value in data set [2] is 2.024 ± 0.0088. Also, in data set [4], the “normalized RNA/DNA level with ligand (log10)” value is 2.02 ± 0.038.

On to GCUGUCACCGGUGCUUGGUACGUUAUAUUCAGCCGGUCUGAUGAGUCUAAAAAUAGACGAAACAGC, for which the “FACS-Seq fitted mean (log10)” value was 0.39 ± 0.039 in data set [1] and 0.512 ± 0.13 in data set [3]. For the same variant, the “normalized RNA/DNA level without ligand (log10)” value in data set [2] turned out to be 1.944 ± 0.011. Moreover, in data set [4], the “normalized RNA/DNA level with ligand (log10)” value worked out at 1.99 ± 0.029.

In the case of GCUGUCACCGGUGCUUGGUACGUUAUAUUCAGCCGGUCUGAUGAGUCUAAAAACAGACGAAACAGC, the “FACS-Seq fitted mean (log10)” value in data set [1] is 0.164 ± 0.051; in data set [3], -0.16 ± 0.076. Besides, in data set [2], the “normalized RNA/DNA level without ligand (log10)” value is 1.985 ± 0.015. The “normalized RNA/DNA level with ligand (log10)” value in data set [4] stood at 1.99 ± 0.034.

Consider GCUGUCACCGGUGCUUGGUACGUUAUAUUCAGCCGGUCUGAUGAGUCUAAAAAAAGACGAAACAGC, for which the “FACS-Seq fitted mean (log10)” value in data set [1] was 0.489 ± 0.019; in data set [3], 0.43 ± 0.029. Also, in data set [2], the “normalized RNA/DNA level without ligand (log10)” value came to 1.948 ± 0.013. In addition, in data set [4], the “normalized RNA/DNA level with ligand (log10)” value stood at 1.97 ± 0.036.

Turning to GCUGUCACCGGUGCUUGGUACGUUAUAUUCAGCCGGUCUGAUGAGUCUAAAAAGAGACGAAACAGC, the “FACS-Seq fitted mean (log10)” value was found to be 0.431 ± 0.18 in data set [1] and 0.605 ± 0.12 in data set [3]. Moreover, the “normalized RNA/DNA level without ligand (log10)” value in data set [2] came out at 1.914 ± 0.0037. In addition, the “normalized RNA/DNA level with ligand (log10)” value in data set [4] is 2 ± 0.045.

GCUGUCACCGGUGCUUGGUACGUUAUAUUCAGCCGGUCUGAUGAGUCUGAAAGAAGACGAAACAGC: the “FACS-Seq fitted mean (log10)” value came to 0.353 ± 0.015 in data set [1] and 0.607 ± 0.25 in data set [3]. For the same variant, the “normalized RNA/DNA level without ligand (log10)” value in data set [2] was 2.011 ± 0.011. The “normalized RNA/DNA level with ligand (log10)” value in data set [4] was determined as 2.04 ± 0.024.

Take GCUGUCACCGGUGCUUGGUACGUUAUAUUCAGCCGGUCUGAUGAGUCUGAAACUAGACGAAACAGC: the “FACS-Seq fitted mean (log10)” value came to 0.175 ± 0.071 in data set [1] and 0.437 ± 0.016 in data set [3]. In data set [2], the “normalized RNA/DNA level without ligand (log10)” value worked out at 2.004 ± 0.0055. Besides, the “normalized RNA/DNA level with ligand (log10)” value in data set [4] is 2.001 ± 0.019.

On to GCUGUCACCGGUGCUUGGUACGUUAUAUUCAGCCGGUCUGAUGAGUCUGAAAACAGACGAAACAGC, for which the “FACS-Seq fitted mean (log10)” value in data set [1] was determined as 0.181 ± 0.013; in data set [3] it was 0.078 ± 0.11. In addition, the “normalized RNA/DNA level without ligand (log10)” value in data set [2] worked out at 1.948 ± 0.0025. The “normalized RNA/DNA level with ligand (log10)” value in data set [4] amounted to 1.98 ± 0.034.

With GCUGUCACCGGUGCUUGGUACGUUAUAUUCAGCCGGUCUGAUGAGUCUGAAAAUAGACGAAACAGC, the figures for the “FACS-Seq fitted mean (log10)” value in data set [1] and in data set [3] were 0.553 ± 0.091 and 0.647 ± 0.21, respectively. The “normalized RNA/DNA level without ligand (log10)” value in data set [2] was found to be 1.9868 ± 0.0018. For the same variant, the “normalized RNA/DNA level with ligand (log10)” value in data set [4] was determined as 2.02 ± 0.022.

With GCUGUCACCGGUGCUUGGUACGUUAUAUUCAGCCGGUCUGAUGAGUCUGAAAAGAGACGAAACAGC, the entries for the “FACS-Seq fitted mean (log10)” value in data set [1] and in data set [3] were 0.162 ± 0.24 and -0.223 ± 0.13, respectively. Besides, the “normalized RNA/DNA level without ligand (log10)” value in data set [2] came to 1.94 ± 0.0028. In data set [4], the “normalized RNA/DNA level with ligand (log10)” value is 2 ± 0.032.

Regarding GCUGUCACCGGUGCUUGGUACGUUAUAUUCAGCCGGUCUGAUGAGUCUCAAAAUAGACGAAACAGC, the “FACS-Seq fitted mean (log10)” value in data set [1] was -0.131 ± 0.018; in data set [3], -0.505 ± 0.1. The “normalized RNA/DNA level without ligand (log10)” value in data set [2] was 1.955 ± 0.0057. Also, the “normalized RNA/DNA level with ligand (log10)” value in data set [4] was found to be 1.98 ± 0.032.

Regarding GCUGUCACCGGUGCUUGGUACGUUAUAUUCAGCCGGUCUGAUGAGUCUCAAAACAGACGAAACAGC, the “FACS-Seq fitted mean (log10)” value is 0.474 ± 0.076 in data set [1] and 0.589 ± 0.49 in data set [3]. For the same variant, in data set [2], the “normalized RNA/DNA level without ligand (log10)” value turned out to be 1.9999 ± 0.0015. Also, the “normalized RNA/DNA level with ligand (log10)” value in data set [4] turned out to be 1.99 ± 0.055.

Turning to GCUGUCACCGGUGCUUGGUACGUUAUAUUCAGCCGGUCUGAUGAGUCUUAAAACAGACGAAACAGC, the figures for the “FACS-Seq fitted mean (log10)” value in data set [1] and in data set [3] were 0.386 ± 0.024 and 0.499 ± 0.15, respectively. Besides, in data set [2], the “normalized RNA/DNA level without ligand (log10)” value came out at 1.973 ± 0.0055. In addition, the “normalized RNA/DNA level with ligand (log10)” value in data set [4] is 1.98 ± 0.028.

Take GCUGUCACCGGUGCUUGGUACGUUAUAUUCAGCCGGUCUGAUGAGUCUUAAAAAAGACGAAACAGC: the entries for the “FACS-Seq fitted mean (log10)” value in data set [1] and in data set [3] were 0.254 ± 0.059 and 0.164 ± 0.11, respectively. Also, the “normalized RNA/DNA level without ligand (log10)” value in data set [2] is 1.9232 ± 0.0015. Besides, the “normalized RNA/DNA level with ligand (log10)” value in data set [4] came out at 1.98 ± 0.024.

As for GCUGUCACCGGUGCUUGGUACGUUAUAUUCAGCCGGUCUGAUGAGUCUUAAAAUAGACGAAACAGC, the “FACS-Seq fitted mean (log10)” value in data set [1] came to 0.0871 ± 0.034; in data set [3], 0.075 ± 0.078. In data set [2], the “normalized RNA/DNA level without ligand (log10)” value was 1.941 ± 0.016. Moreover, the “normalized RNA/DNA level with ligand (log10)” value in data set [4] came to 1.97 ± 0.036.

As for GCUGUCACCGGUGCUUGGUACGUUAUAUUCAGCCGGUCUGAUGAGUCUUAAAAGAGACGAAACAGC, the “FACS-Seq fitted mean (log10)” value in data set [1] came out at 0.335 ± 0.03; in data set [3] it was 0.493 ± 0.023. Besides, the “normalized RNA/DNA level without ligand (log10)” value in data set [2] stood at 1.7583 ± 0.00058. Besides, the “normalized RNA/DNA level with ligand (log10)” value in data set [4] was 1.96 ± 0.049.

GCUGUCACCGGUGCUUGGUACGUUAUAUUCAGCCGGUCUGAUGAGUCUAAAACAAGACGAAACAGC: the “FACS-Seq fitted mean (log10)” value in data set [1] came out at 0.359 ± 0.036; in data set [3], 0.304 ± 0.0079. In data set [2], the “normalized RNA/DNA level without ligand (log10)” value came out at 1.988 ± 0.0088. Also, the “normalized RNA/DNA level with ligand (log10)” value in data set [4] came out at 2 ± 0.024.

On to GCUGUCACCGGUGCUUGGUACGUUAUAUUCAGCCGGUCUGAUGAGUCUAAAACUAGACGAAACAGC, for which the “FACS-Seq fitted mean (log10)” value in data set [1] came to 0.355 ± 0.07; in data set [3], 0.358 ± 0.15. Moreover, the “normalized RNA/DNA level without ligand (log10)” value in data set [2] was determined as 2.024 ± 0.00081. Further, the “normalized RNA/DNA level with ligand (log10)” value in data set [4] came out at 2.03 ± 0.035.

Regarding GCUGUCACCGGUGCUUGGUACGUUAUAUUCAGCCGGUCUGAUGAGUCUAAAACGAGACGAAACAGC, the entries for the “FACS-Seq fitted mean (log10)” value in data set [1] and in data set [3] were 0.631 ± 0.022 and 0.582 ± 0.16, respectively. In addition, in data set [2], the “normalized RNA/DNA level without ligand (log10)” value came to 1.93 ± 0.0068. In data set [4], the “normalized RNA/DNA level with ligand (log10)” value was 1.99 ± 0.015.

Regarding GCUGUCACCGGUGCUUGGUACGUUAUAUUCAGCCGGUCUGAUGAGUCUUAAACGAGACGAAACAGC, the figures for the “FACS-Seq fitted mean (log10)” value in data set [1] and in data set [3] were 0.324 ± 0.13 and 0.717 ± 0.1, respectively. Further, the “normalized RNA/DNA level without ligand (log10)” value in data set [2] stood at 1.799 ± 0.016. Also, in data set [4], the “normalized RNA/DNA level with ligand (log10)” value was determined as 1.95 ± 0.032.
